Test results reported in US20220273733A1.

Assays:
[1] = molecular target: soymeal proteins (ethanol-precipitated, heat-denatured soy-meal protein mixture)
[2] = molecular target: lactoferrin (glycosylated, of human milk) (human) (UniProt P02788)

| Binder | Glycan Yield (ug), released glycans measured by phenol sulphuric total carbohydrate assay [1] | N-glycans in fecal samples (nano-HPLC-Chip-TOF) compared with the lactoferrin N-glycan library (out of 18 N-glycans) [2] |
| --- | --- | --- |
| EndoBI-1 (endo-β-N-acetylglucosaminidase from B. infantis), enzyme solution used in Example 1 (enzyme) DAVSPTQETIQSTGRHFMVYYRAWRDVTMKGVNTDLPDDNWISMYDIPYGVDVVNIFSYVPSGQEEQAQPFYDKLKSDYAPYLHSRGIKLVRGIDYTGVAVNGFRTFMKEQNKTESEATEADYDAYAKQVIDKYMISVGLDGLDIDMEAHPNDADVKISDNVIRALSKHIGPKSAKPDTTMFLYDTNGSYLNPFKNVAECFDYVAYQQYGSSSDRTARAAADYQPYIGNEFVPGLTFPEEGDMNNRWYDATEPYEESHFYQVASYVREHNLGGMFVYALDRDGRNYDEDLRRIVPSNLLWTKTAIAESEGMALDTAKTAANHYLDRMSLRQVIDDNAASADKARDMVGKAANLYETNKAVLGGDYGEGFSNTYDPTLEAGLLGIDISVLQQQIDKSSEIIGADTAESDAKTALRMARDAAIDGLTGKIYTADQVSAWSQALKAALDATVPVPTPDSTDQNGNRDKVTNHKVQGQPKQLSATGISTDIIVAVGVTLAIAGVALSLSRKLS | 75 µg |  |
| EndoBI-1 of B. infantis EVC001 as acting in the gut of EVC001-fed infants (enzyme) DAVSPTQETIQSTGRHFMVYYRAWRDVTMKGVNTDLPDDNWISMYDIPYGVDVVNIFSYVPSGQEEQAQPFYDKLKSDYAPYLHSRGIKLVRGIDYTGVAVNGFRTFMKEQNKTESEATEADYDAYAKQVIDKYMISVGLDGLDIDMEAHPNDADVKISDNVIRALSKHIGPKSAKPDTTMFLYDTNGSYLNPFKNVAECFDYVAYQQYGSSSDRTARAAADYQPYIGNEFVPGLTFPEEGDMNNRWYDATEPYEESHFYQVASYVREHNLGGMFVYALDRDGRNYDEDLRRIVPSNLLWTKTAIAESEGMALDTAKTAANHYLDRMSLRQVIDDNAASADKARDMVGKAANLYETNKAVLGGDYGEGFSNTYDPTLEAGLLGIDISVLQQQIDKSSEIIGADTAESDAKTALRMARDAAIDGLTGKIYTADQVSAWSQALKAALDATVPVPTPDSTDQNGNRDKVTNHKVQGQPKQLSATGISTDIIVAVGVTLAIAGVALSLSRKLS |  | 14 |
